From US20040133357A1 (ABMAXIS, published 2004)

Assays:
[1] = molecular target: T1, purified recombinant human VEGF165 (human, UniProt P15692 27-191, glycosylated); assay: SPR (BIAcore), scFv over VEGF immobilized on CM5 chip; reference hAB1
T1 construct: mature; Bought from Calbiochem; also called VEGF protein (Calbiochem); homodimeric VEGF protein
Description: (§1) Antibody fragments in the format of single chain were expressed as described below and purified. The measurement was done by measuring the change of SPR units (y-axis) vs time (x-axis) when a purified antibody binds its antigen (VEGF) immobilized on the CM5 biochip at 25° C. Kd values were calculated by the […].
(§2) BIAcore Biosensor Assay was used to determine antibody affinity. VEGF protein (purchased from Calbiochem) was coupled to a CM-5 biosensor ship by amine coupling. After immobilization, CM-5 chips with 200 to 1000 response unites of VEGF were kept at 4° C. before use. All experiments were performed at 25° C. or 35° C. Each sample in PBS buffer was injected over VEGF surface at a flow rate of 20 ul/min using Biacore 1000 (Biacore AB, Sweden), and bound antibodies were removed from chip by 10 ul of glycine-HCl, PH 1.5 at the end of each cycle. Each sensorgram was recorded and normalized to a PBS base line.

[2] = molecular target: T1, purified recombinant human VEGF165; assay: SPR (BIAcore), scFv over VEGF immobilized on CM5 chip, 25 C; reference hAB1
Description: as §2

[3] = molecular target: T1, purified recombinant human VEGF165; assay: SPR (BIAcore), purified scFv over VEGF immobilized on CM5 chip, 25 C
Description: as §1, §2

T1 sequence (P15692 other isoform, or with tags, fused parts or gaps limits assumed): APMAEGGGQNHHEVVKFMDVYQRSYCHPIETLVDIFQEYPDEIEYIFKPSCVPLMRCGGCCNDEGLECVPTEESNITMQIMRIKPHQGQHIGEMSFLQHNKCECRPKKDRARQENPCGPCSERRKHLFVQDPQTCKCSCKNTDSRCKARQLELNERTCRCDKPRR

B1: hAB3 (scFv)
scFv: EVQLVQSGGGVVQPGGSLRLSCAASGYTFTNYGMNWIRQAPGKGLEWVGWINTYTGEPTYAADFKRRVTFSLDTSKSTAYLQLNSLRAEDTAVYYCAKYPHYYGSSHWYFDVWGQGTLVTVSSGGGGSGGGGSGGGGSDIQMTQSPSSLSASVGDRVTITCSASQDISNYLNWYQQKPGKAPKVLIYFTSSLHSGVPSRFSGSGSGTDFTLTISSLQPEDFATYYCQQYSTVPWTFGQGTKVEIK
notes: Single chain format; not shown: HA-His6 tag at C-terminus
- fold higher binding affinity than hAB1 [1]: 4 fold
- fold higher binding affinity than the parental/reference antibody (hAB1) [2]: ~4 fold
- Kd [3]: 3.1 nM
- hAB1 Kd/Variant Kd [3]: 4.2
- koff [3]: 0.000115 s⁻¹
- kon [3]: 37400 M⁻¹ s⁻¹

B2: hAB4 (scFv)
scFv: QVQLVQSGGGVVQPGGSLRLTCAASGYTFTNYGMNWVRQAPGKGLEWVGWINTYTGEPTYAADFKRRFTISLDTSKSQAYLQMNSLRAEDTAVYYCAKYPHYYGSSHWYFDVWGQGTLVTVSSGGGGSGGGGSGGGGSDIQMTQSPSSLSASVGDRVTITCSASQDISNYLNWYQQKPGKAPKVLIYFTSSLHSGVPSRFSGSGSGTDFTLTISSLQPEDFATYYCQQYSTVPWTFGQGTKVEIK
notes: as for B1
- fold higher binding affinity than hAB1 [1]: 2 fold
- Kd [3]: 26 nM
- hAB1 Kd/Variant Kd [3]: 0.5
- koff [3]: 0.000104 s⁻¹
- kon [3]: 4000 M⁻¹ s⁻¹
